Experimental data: patent US20130217145A1 (published 2013)

Assays:
Test in all cases: FCS competition against 2 nM Alexa488-PIVKAII (13-27) premixed with 10 nM mAb 3C10
[1] = biological target: T1, Gla domain Factor IX sequence 11 peptide
T1 construct: Homologous series peptide; also called PIVKAII Gla domain (13-27) analog, Factor IX
T1 peptide: LERECMEEKCSFEEA
Experimental: (§1) FCS measurements were performed on each sample after overnight incubation.

[2] = biological target: T2, Gla domain Factor X sequence 12 peptide
T2 construct: Homologous series peptide; also called PIVKAII Gla domain (13-27) analog, Factor X
T2 peptide: LERECMEETCSYEEA
Experimental: as §1

[3] = biological target: T3, Gla domain Factor VII sequence 13 peptide
T3 construct: Homologous series peptide; also called PIVKAII Gla domain (13-27) analog, Factor VII
T3 peptide: LERECKEEQCSFEEA
Experimental: as §1

[4] = biological target: T4, Gla domain Protein C sequence 14 peptide
T4 construct: Homologous series peptide; also called PIVKAII Gla domain (13-27) analog, Protein C
T4 peptide: LERECIEEICDFEEA
Experimental: as §1

[5] = biological target: T5, Gla domain Protein S sequence 15 peptide
T5 construct: Homologous series peptide; also called PIVKAII Gla domain (13-27) analog, Protein S
T5 peptide: LERECIEELCNKEEA
Experimental: as §1

[6] = biological target: T6, Gla domain Protein Z sequence 16 peptide
T6 construct: Homologous series peptide; also called PIVKAII Gla domain (13-27) analog, Protein Z
T6 peptide: LEKECYEEICVYEEA
Experimental: as §1

Measured: binding result

B1: Anti-PIVKA-II monoclonal antibody 3C10 (antibody, V domains shown)
VH: EVQLVESGGDLVKPGGSLKLSCAASGFTFSSYGMSWVRQTPDKRLEWVATISRGGSSTYYPDSVKGRFTISRDNAKNNLYLQMSSLKSEDTAMYYCASLNYGNFFDYWGQGTTLTVSS
VL: DVVMTQTPLSLPVSLGDQASISCRSSQSLVHSNGNTYLHWYLQKPGQSPKLLIYKVSNRFSGVPDRFSGSGSGTDFTLKISRVEAEDLGVYFCSQNRHVPPTFGGGTKLEIKR
notes: Mouse hybridoma antibody from a GANP transgenic C57BL/6 mouse; For the Kd measurement the antibody carried Black Hole Quencher (I.R. 2.3); also called mAb 3C10; clone 3C10
no binding: all assays above
